From IntAct's records for PubMed 23932592

B1: Vacuolar protein sorting-associated protein 51 homolog (Homo sapiens), Q9UID3-1 (parent)
chain: MAAAAAAGPSPGSGPGDSPEGPEGEAPERRRKAHGMLKLYYGLSEGEAAGRPAGPDPLDPTDLNGAHFDPEVYLDKLRRECPLAQLMDSETDMVRQIRALDSDMQTLVYENYNKFISATDTIRKMKNDFRKMEDEMDRLATNMAVITDFSARISATLQDRHERITKLAGVHALLRKLQFLFELPSRLTKCVELGAYGQAVRYQGRAQAVLQQYQHLPSFRAIQDDCQVITARLAQQLRQRFREGGSGAPEQAECVELLLALGEPAEELCEEFLAHARGRLEKELRNLEAELGPSPPAPDVLEFTDHGGSGFVGGLCQVAAAYQELFAAQGPAGAEKLAAFARQLGSRYFALVERRLAQEQGGGDNSLLVRALDRFHRRLRAPGALLAAAGLADAATEIVERVARERLGHHLQGLRAAFLGCLTDVRQALAAPRVAGKEGPGLAELLANVASSILSHIKASLAAVHLFTAKEVSFSNKPYFRGEFCSQGVREGLIVGFVHSMCQTAQSFCDSPGEKGGATPPALLLLLSRLCLDYETATISYILTLTDEQFLVQDQFPVTPVSTLCAEARETARRLLTHYVKVQGLVISQMLRKSVETRDWLSTLEPRNVRAVMKRVVEDTTAIDVQVGLLYEEGVRKAQSSDSSKRTFSVYSSSRQQGRYAPSYTPSAPMDTNLLSNIQKLFSERIDVFSPVEFNKVSVLTGIIKISLKTLLECVRLRTFGRFGLQQVQVDCHFLQLYLWRFVADEELVHLLLDEVVASAALRCPDPVPMEPSVVEVICERG
partner: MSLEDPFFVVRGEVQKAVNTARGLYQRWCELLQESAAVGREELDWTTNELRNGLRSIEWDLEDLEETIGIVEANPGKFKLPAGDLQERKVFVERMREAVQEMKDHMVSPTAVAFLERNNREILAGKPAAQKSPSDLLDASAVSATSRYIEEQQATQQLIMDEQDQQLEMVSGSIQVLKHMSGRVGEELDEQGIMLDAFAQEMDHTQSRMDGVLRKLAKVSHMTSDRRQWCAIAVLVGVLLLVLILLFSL
B2: Syntaxin-6 (Homo sapiens), O43752 (parent)
chain: MSMEDPFFVVKGEVQKAVNTAQGLFQRWTELLQDPSTATREEIDWTTNELRNNLRSIEWDLEDLDETISIVEANPRKFNLDATELSIRKAFITSTRQVVRDMKDQMSTSSVQALAERKNRQALLGDSGSQNWSTGTTDKYGRLDRELQRANSHFIEEQQAQQQLIVEQQDEQLELVSGSIGVLKNMSQRIGGELEEQAVMLEDFSHELESTQSRLDNVMKKLAKVSHMTSDRRQWCAIAILFAVLLVVLILFLVL
partner: B1 chain
B3: Vacuolar protein sorting-associated protein 51 homolog (Homo sapiens), Q9UID3-1 (parent)
chain: B1 chain
partner: B2 chain
B4: Syntaxin-10 (Homo sapiens), O60499-1 (parent)
chain: B1 partner
partner: B1 chain

Variants of: B1
Conditions: with STX10, O60499-1

| effect of a mutation on the interaction | Variant |
| --- | --- |
| disrupting interaction strength | Y40A |
| disrupting interaction strength | L37A |
| disrupting interaction strength | Y41A |

Variants of: B1
Conditions: with STX10, O60499-1
Remark: another data set of the same source

| effect of a mutation on the interaction | Variant |
| --- | --- |
| disrupting interaction strength | Y40A;Y41A |

Variants of: B2
Conditions: with VPS51, Q9UID3-1

| effect of a mutation on the interaction | Variant |
| --- | --- |
| disrupting interaction strength | MSMEDPFFVVKGEVQKAVNTAQGLFQRWTELLQDPSTATREEIDWTTNELRNNLRSIEWDLEDLDETISIVEANPRKFNLDATELSIMKAFITSTRQVVRDMKDQMSTSSVQALAERKNRQALLGDSGSQNWSTGTTDKYGRLDRELQRANSHFIEEQQAQQQLIVEQQDEQLELVSGSIGVLKNMSQRIGGELEEQAVMLEDFSHELESTQSRLDNVMKKLAKVSHMTSDRRQWCAIAILFAVLLVVLILFLVL [R88M] |
| disrupting interaction strength | MSMELPFFVVKGEVQKAVNTAQGLFQRWTELLQDPSTATREEIDWTTNELRNNLRSIEWDLEDLDETISIVEANPRKFNLDATELSIRKAFITSTRQVVRDMKDQMSTSSVQALAERKNRQALLGDSGSQNWSTGTTDKYGRLDRELQRANSHFIEEQQAQQQLIVEQQDEQLELVSGSIGVLKNMSQRIGGELEEQAVMLEDFSHELESTQSRLDNVMKKLAKVSHMTSDRRQWCAIAILFAVLLVVLILFLVL [D5L] |
| disrupting interaction strength | MSMEDAFFVVKGEVQKAVNTAQGLFQRWTELLQDPSTATREEIDWTTNELRNNLRSIEWDLEDLDETISIVEANPRKFNLDATELSIRKAFITSTRQVVRDMKDQMSTSSVQALAERKNRQALLGDSGSQNWSTGTTDKYGRLDRELQRANSHFIEEQQAQQQLIVEQQDEQLELVSGSIGVLKNMSQRIGGELEEQAVMLEDFSHELESTQSRLDNVMKKLAKVSHMTSDRRQWCAIAILFAVLLVVLILFLVL [P6A] |
| disrupting interaction strength | MSMEDPLFVVKGEVQKAVNTAQGLFQRWTELLQDPSTATREEIDWTTNELRNNLRSIEWDLEDLDETISIVEANPRKFNLDATELSIRKAFITSTRQVVRDMKDQMSTSSVQALAERKNRQALLGDSGSQNWSTGTTDKYGRLDRELQRANSHFIEEQQAQQQLIVEQQDEQLELVSGSIGVLKNMSQRIGGELEEQAVMLEDFSHELESTQSRLDNVMKKLAKVSHMTSDRRQWCAIAILFAVLLVVLILFLVL [F7L] |

Variants of: B3
Conditions: with stx6_human STX6, O43752

| effect of a mutation on the interaction | Variant |
| --- | --- |
| disrupting interaction strength | L37A |
| disrupting interaction strength | Y41A |
| disrupting interaction strength | Y40A |

Variants of: B3
Conditions: with stx6_human STX6, O43752
Remark: another data set of the same source

| effect of a mutation on the interaction | Variant |
| --- | --- |
| disrupting interaction strength | Y40A;Y41A |

Variants of: B4
Conditions: with VPS51, Q9UID3-1

| effect of a mutation on the interaction | Variant |
| --- | --- |
| disrupting interaction strength | MSLELPFFVVRGEVQKAVNTARGLYQRWCELLQESAAVGREELDWTTNELRNGLRSIEWDLEDLEETIGIVEANPGKFKLPAGDLQERKVFVERMREAVQEMKDHMVSPTAVAFLERNNREILAGKPAAQKSPSDLLDASAVSATSRYIEEQQATQQLIMDEQDQQLEMVSGSIQVLKHMSGRVGEELDEQGIMLDAFAQEMDHTQSRMDGVLRKLAKVSHMTSDRRQWCAIAVLVGVLLLVLILLFSL [D5L] |
| disrupting interaction strength | MSLEDAFFVVRGEVQKAVNTARGLYQRWCELLQESAAVGREELDWTTNELRNGLRSIEWDLEDLEETIGIVEANPGKFKLPAGDLQERKVFVERMREAVQEMKDHMVSPTAVAFLERNNREILAGKPAAQKSPSDLLDASAVSATSRYIEEQQATQQLIMDEQDQQLEMVSGSIQVLKHMSGRVGEELDEQGIMLDAFAQEMDHTQSRMDGVLRKLAKVSHMTSDRRQWCAIAVLVGVLLLVLILLFSL [P6A] |
| disrupting interaction strength | MSLEDPLFVVRGEVQKAVNTARGLYQRWCELLQESAAVGREELDWTTNELRNGLRSIEWDLEDLEETIGIVEANPGKFKLPAGDLQERKVFVERMREAVQEMKDHMVSPTAVAFLERNNREILAGKPAAQKSPSDLLDASAVSATSRYIEEQQATQQLIMDEQDQQLEMVSGSIQVLKHMSGRVGEELDEQGIMLDAFAQEMDHTQSRMDGVLRKLAKVSHMTSDRRQWCAIAVLVGVLLLVLILLFSL [F7L] |
| disrupting interaction strength | MSLEDPFFVVRGEVQKAVNTARGLYQRWCELLQESAAVGREELDWTTNELRNGLRSIEWDLEDLEETIGIVEANPGKFKLPAGDLQEMKVFVERMREAVQEMKDHMVSPTAVAFLERNNREILAGKPAAQKSPSDLLDASAVSATSRYIEEQQATQQLIMDEQDQQLEMVSGSIQVLKHMSGRVGEELDEQGIMLDAFAQEMDHTQSRMDGVLRKLAKVSHMTSDRRQWCAIAVLVGVLLLVLILLFSL [R88M] |
